Test results reported in US20110212108A1, “NEUREGULIN/ERBB SIGNALING AND INTEGRIN” (THE REGENTS OF THE UNIVERSITY OF CALIFORNIA, priority 2008, published 2011).
Entries after “also recorded” stand apart in the source; their conditions may differ. Values belong to the molecule of their own block, whether it stands above or below them. Ends that are not written are not given here. GST = glutathione S-transferase

Columns and labels:
integrin αvβ3 = biological target: T1, integrin αvβ3 (Homo sapiens, UniProt P05106+P06756); experiment: ELISA-type binding of soluble recombinant integrin αvβ3 to immobilized NRG1 fragments; conditions: soluble αvβ3, 1 mM Mn2+, room temperature
T1 construct: Soluble recombinant integrin αvβ3 (5 μg/ml) was added to the wells; made in house
T1 sequence (P06756 31-992 limits assumed): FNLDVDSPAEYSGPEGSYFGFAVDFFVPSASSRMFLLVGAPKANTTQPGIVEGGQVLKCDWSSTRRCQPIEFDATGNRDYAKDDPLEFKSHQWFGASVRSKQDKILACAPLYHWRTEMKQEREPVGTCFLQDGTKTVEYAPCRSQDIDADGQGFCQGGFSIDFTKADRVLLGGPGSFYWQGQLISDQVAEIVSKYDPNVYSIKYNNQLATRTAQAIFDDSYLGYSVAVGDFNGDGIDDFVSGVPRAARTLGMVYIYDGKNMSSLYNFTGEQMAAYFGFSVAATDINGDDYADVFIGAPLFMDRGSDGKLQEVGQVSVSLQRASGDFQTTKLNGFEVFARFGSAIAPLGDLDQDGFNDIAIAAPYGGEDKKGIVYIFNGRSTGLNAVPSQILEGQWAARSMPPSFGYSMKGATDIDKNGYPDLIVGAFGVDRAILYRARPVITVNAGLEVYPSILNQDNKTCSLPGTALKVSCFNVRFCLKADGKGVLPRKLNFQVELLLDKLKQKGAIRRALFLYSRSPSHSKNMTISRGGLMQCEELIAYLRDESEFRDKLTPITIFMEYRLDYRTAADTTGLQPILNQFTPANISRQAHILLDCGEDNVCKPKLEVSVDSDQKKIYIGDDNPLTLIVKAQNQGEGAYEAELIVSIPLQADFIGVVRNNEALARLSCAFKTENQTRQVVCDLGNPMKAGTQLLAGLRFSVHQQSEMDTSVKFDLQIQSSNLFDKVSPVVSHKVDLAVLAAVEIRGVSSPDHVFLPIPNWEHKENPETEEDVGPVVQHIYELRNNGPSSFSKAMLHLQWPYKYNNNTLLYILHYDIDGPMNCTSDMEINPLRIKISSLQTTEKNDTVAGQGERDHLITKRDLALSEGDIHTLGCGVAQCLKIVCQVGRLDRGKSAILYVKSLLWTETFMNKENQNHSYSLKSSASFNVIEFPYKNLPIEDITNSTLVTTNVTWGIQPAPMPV
T1 sequence (P05106 27-718 limits assumed): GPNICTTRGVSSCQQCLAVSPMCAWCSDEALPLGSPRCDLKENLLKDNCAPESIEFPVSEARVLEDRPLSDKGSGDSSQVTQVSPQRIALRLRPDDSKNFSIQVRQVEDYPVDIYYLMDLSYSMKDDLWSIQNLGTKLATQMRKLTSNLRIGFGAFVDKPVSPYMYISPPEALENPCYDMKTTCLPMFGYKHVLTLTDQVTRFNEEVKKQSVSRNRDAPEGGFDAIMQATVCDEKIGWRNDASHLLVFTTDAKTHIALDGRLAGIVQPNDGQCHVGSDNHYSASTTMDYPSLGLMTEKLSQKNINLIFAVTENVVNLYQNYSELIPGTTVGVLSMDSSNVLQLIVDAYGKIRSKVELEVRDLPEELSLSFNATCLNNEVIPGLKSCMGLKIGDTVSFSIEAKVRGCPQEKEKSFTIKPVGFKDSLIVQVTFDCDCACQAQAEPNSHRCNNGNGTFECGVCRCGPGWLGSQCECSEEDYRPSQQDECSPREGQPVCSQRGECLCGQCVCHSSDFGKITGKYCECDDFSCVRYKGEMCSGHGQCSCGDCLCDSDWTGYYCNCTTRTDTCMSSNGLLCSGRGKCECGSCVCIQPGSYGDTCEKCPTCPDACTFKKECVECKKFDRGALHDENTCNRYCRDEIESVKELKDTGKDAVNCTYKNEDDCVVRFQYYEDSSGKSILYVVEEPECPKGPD
Description: FIG. 1. […] The isolated EGF-like domain of Wt NRG1 was immobilized to wells of 96-well titer plates. The concentrations of the coating solution are shown. Soluble recombinant integrin αvβ3 (5 μg/ml) was added to the wells in the presence of 1 mM Mn^2+ and incubated for 2 h at room temperature. After washing the wells bound αvβ3 was determined by using anti-β3 antibody and HRP-conjugated anti-mouse IgG. The data is shown as means+/−SEM of triplicate experiments. FIG. 7. […] Wt GST-NRG1 (175-222) and the 2KE mutant of GST-NRG1 (175-222) were immobilized to wells of 96-well titer plates. The concentrations of the coating solution are shown. Soluble recombinant integrin αvβ3 (5 μg/ml) was added to the wells in the presence of 1 mM Mn^2+ and incubated for 2 h at room temperature. After washing, the wells bound αvβ3 was determined by using anti-β3 antibody and HRP-conjugated anti-mouse IgG. The data are shown as means+/−SD of triplicate experiments. […] Direct αvβ3-NRG (175-222) interaction: It has been well established that the EGF-like domain of the NRGs is sufficient to specifically activate ErbB receptors and to induce cellular responses in culture. To generate GST-NRG1 EGF-like domain fusion protein, the cDNA fragment of the EGF-like domain of NRG1 was amplified by PCR and subcloned into PGEX-2T vector to generate GST-NRG1 EGF-like domain fusion protein (designated GST-NRG1 (175-222)) in E. coli BL21. The fusion protein was purified in glutathione-affinity chromatography. The affinity resin was extensively washed with 1% Triton X-114 to remove endotoxin before eluting the protein. It was tested, in the present invention, whether soluble recombinant integrin αvβ3 binds to GST-NRG1 (175-222) that is immobilized to plastic wells (ELISA-type assay). […] Cell adhesion and soluble integrin binding assays were performed as described previously (Mori, et al., 2008). NRG1α (175-241) was immobilized to wells of 96-well microtiter plate overnight at 4° C. in 0.1 M carbonate buffer, pH 2 9.4. Remaining protein binding sites were blocked by incubating with 200 μl of 0.1% BSA in PBS for 60 min at room temperature. Wells were then incubated with soluble integrin αvβ3 in 50 μl in Hepes-Tyrode's buffer supplemented with 1 mM Mn2+ at room temperature for 60 min. After rinsing the wells with the same buffer, bound integrins were determined by horseradish peroxidase (HRP)-conjugated anti-His tag mouse IgG and substrate 3,3′,5,5′-tetramethylbenzidine of HRP.

[1] = biological target: T2, human integrin αvβ3 on K562 erythroleukemic cells (αvβ3-K562) (human, UniProt P06756 31-1048; P05106 27-788); experiment: cell adhesion to immobilised NRG1α
T2 construct: whole, on cells; also called K562 cells that express human αvβ3
T2 sequence (P06756 31-1048, chain 1 of 2): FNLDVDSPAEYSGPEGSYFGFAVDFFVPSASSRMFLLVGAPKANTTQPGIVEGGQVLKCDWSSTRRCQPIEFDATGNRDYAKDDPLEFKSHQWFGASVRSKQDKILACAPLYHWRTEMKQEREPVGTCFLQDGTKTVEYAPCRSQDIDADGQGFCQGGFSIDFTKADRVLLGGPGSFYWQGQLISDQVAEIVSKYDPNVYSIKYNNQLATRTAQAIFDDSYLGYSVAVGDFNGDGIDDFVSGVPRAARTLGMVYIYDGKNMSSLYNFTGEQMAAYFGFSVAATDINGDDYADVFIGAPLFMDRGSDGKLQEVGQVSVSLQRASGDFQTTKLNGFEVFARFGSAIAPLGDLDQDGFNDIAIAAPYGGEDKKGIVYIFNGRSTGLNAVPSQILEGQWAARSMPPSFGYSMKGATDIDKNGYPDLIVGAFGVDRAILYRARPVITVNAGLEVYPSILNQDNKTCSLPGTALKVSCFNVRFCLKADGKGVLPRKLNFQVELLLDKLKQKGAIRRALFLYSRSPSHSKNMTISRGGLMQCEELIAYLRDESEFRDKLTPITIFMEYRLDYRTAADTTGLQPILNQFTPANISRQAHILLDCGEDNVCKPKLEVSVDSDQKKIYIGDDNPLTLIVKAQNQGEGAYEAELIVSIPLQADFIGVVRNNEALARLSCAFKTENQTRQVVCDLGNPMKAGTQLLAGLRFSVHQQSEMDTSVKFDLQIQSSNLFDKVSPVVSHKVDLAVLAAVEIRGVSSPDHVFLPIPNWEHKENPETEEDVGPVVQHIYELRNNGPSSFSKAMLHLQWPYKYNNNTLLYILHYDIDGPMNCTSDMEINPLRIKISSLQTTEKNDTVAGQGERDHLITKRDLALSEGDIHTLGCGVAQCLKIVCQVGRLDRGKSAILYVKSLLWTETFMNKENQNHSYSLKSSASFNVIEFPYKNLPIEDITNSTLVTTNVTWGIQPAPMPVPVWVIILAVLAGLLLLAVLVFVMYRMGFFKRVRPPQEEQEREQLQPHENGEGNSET
T2 sequence (P05106 27-788, chain 2 of 2): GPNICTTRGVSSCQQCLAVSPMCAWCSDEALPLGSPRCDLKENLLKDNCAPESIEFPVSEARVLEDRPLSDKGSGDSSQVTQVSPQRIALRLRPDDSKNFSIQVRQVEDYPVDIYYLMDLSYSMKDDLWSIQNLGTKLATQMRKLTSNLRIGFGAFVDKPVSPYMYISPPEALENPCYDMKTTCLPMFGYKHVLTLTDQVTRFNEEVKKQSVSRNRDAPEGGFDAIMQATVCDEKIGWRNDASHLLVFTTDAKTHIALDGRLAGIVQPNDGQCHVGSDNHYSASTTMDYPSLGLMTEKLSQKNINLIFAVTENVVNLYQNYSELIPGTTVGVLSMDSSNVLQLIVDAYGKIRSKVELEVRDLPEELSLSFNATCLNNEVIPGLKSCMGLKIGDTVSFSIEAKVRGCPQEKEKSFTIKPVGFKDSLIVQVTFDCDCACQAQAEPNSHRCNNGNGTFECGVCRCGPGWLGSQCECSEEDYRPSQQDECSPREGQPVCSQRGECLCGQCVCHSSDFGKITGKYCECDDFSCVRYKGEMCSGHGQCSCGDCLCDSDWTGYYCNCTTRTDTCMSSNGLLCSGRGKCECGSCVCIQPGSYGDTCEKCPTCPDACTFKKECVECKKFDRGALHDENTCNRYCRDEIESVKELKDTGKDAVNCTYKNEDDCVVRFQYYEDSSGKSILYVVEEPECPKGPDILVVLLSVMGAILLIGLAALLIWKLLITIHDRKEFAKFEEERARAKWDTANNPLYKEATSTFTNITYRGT

[2] = biological target: T3, Recombinant human ErbB3 Fc chimera (R&D Systems) (human, UniProt P21860 20-643); experiment: ELISA-type assay, ErbB3 Fc coated at 1 µg/ml, bound GST fusion detected with anti-GST HRP
T3 construct: Bought from R&D Systems; also called recombinant soluble ErbB3 Fc fusion protein; recombinant soluble ErbB3; Fc part of the bought chimera not given; not described
T3 sequence (P21860 20-643, change not shown): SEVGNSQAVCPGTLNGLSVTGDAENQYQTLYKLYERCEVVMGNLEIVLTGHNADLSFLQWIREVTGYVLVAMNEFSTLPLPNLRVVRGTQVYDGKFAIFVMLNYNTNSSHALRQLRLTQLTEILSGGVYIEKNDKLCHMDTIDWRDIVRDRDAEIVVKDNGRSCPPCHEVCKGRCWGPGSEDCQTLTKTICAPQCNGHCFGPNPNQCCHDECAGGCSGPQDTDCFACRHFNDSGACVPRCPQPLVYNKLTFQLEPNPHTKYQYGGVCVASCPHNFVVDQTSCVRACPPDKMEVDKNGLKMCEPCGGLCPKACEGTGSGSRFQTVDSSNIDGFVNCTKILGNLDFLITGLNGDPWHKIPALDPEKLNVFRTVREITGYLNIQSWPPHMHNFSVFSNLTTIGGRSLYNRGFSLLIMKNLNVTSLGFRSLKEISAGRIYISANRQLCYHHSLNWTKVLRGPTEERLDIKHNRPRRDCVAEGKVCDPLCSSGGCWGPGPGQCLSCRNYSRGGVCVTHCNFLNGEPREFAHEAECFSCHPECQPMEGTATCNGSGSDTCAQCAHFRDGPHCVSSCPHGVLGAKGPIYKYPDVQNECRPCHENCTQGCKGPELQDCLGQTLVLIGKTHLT

[3] = biological target: T2, human integrin αvβ3 on K562 …; experiment: cell adhesion of αvβ3-K562 cells
[4] = biological target: T2, human integrin αvβ3 on K562 …; experiment: cell adhesion of αvβ3-K562 cells to immobilised 3KE (175-222)
[5] = biological target: T4, human integrin α6β4 on CHO cells (α6β4-CHO) (human, UniProt P23229 24-1130; P16144 28-1822); experiment: cell adhesion of α6β4-CHO cells to immobilised 3KE (175-222)
T4 construct: whole, on cells; also called keratinocyte integrin α6β4

[6] = test system: mammary intraepithelial neoplasia-outgrowth (MIN-O); experiment: Outgrowth of precancer (MIN-O) in FVB mice; assay type: in vivo; conditions: 200 ng/day/mouse intraperitoneally, 5 days a week for 4 weeks; P=0.0355
Description: FIG. 16. Inhibitory effect of daily intraperitoneal injection of 3KE (175-222) on the outgrowth of precancer (MIN-O) in FVB mice. MIN-O was transplanted into fat pads of FVB mice (two per mice) and 3KE (175-222) (200 ng/mouse/day) was injected 5 days a week for 4 weeks starting day 0. After 28 days, mice were sacrificed and the dimensions of tumors were measured. Since MIN-O grows as a thin layer, the two-dimensional size was calculated and the thickness was ignored. P=0.0355 by ANOVA between control and 3KE (175-222).
To study the effect of 3KE (175-222) on the premalignant cancer, transplantable mammary intraepithelial neoplasia-outgrowth (MIN-O) tissue lines, which were derived from hyperplastic mammary lesions in young Tg(MMTV-PyV-mT) females (Maglione et al. 2004), were used. The resulting lesions mimic the biological behavior, molecular biology, and histopathology of human ductal carcinoma in situ (Maglione et al. 2004). One mm^3 pieces of the 8w-BMINO tissues (Maglione et al. 2004) were transplanted to gland-cleared no. 4 mammary fat pads of 3-week-old FVB females bilaterally.

Molecule: 2KE (175-222): NRG1 (175-222) with Lys185/Lys187 mutated to Glu; GTSHLVKCAEEEETFCVNGGECFMVKDLSNPSRYLCKCQPGFTGARCT (SEQ ID NO:12) (integrin-binding site within human neuregulin, 2KE mutant, short version)
- Binding of soluble recombinant integrin αvβ3 to the immobilized protein (integrin αvβ3): much lower affinity to αvβ3; also recorded: did not

- binding result [1]: binds
- binding result [2]: binds
B1: GST-NRG1α (175-241), wild type (EGF-like motif and α domain of human neuregulin 1α as GST fusion protein) (ligand)
chain: GTSHLVKCAEKEKTFCVNGGECFMVKDLSNPSRYLCKCQPGFTGARCTENVPMKVQNQEKAEELYQK
notes: not shown: glutathione S-transferase (GST) tag as encoded by the pGEX-2T vector, N-terminal

- binding result [2]: binds
B2: 3KE (175-241) mutant of NRG1α (Lys181/Lys185/Lys187 to Glu), GST fusion protein (ligand, not shown: a dimerising Fc or GST; large carriers; small tags and cut ends)
chain: GTSHLVECAEEEETFCVNGGECFMVKDLSNPSRYLCKCQPGFTGARCTENVPMKVQNQEKAEELYQK

- binding result [3]: binds
B3: GST-NRG1 (175-222), wild type EGF-like domain of human neuregulin 1 as GST fusion protein (ligand)
chain: {GST}-GTSHLVKCAEKEKTFCVNGGECFMVKDLSNPSRYLCKCQPGFTGARCT
modifications: not fully specified; cysteine pairing not given here
notes: Made in E. coli as GST fusion (pGEX-2T); not shown: glutathione S-transferase (GST) tag as encoded by the pGEX-2T vector, N-terminal

- binding result [4]: no binding
- binding result [5]: no binding
Molecule: GTSHLVECAEEEETFCVNGGECFMVKDLSNPSRYLCKCQPGFTGARCT (ligand, not shown: a dimerising Fc or GST; large carriers; small tags and cut ends) [3KE (175-222) mutant of NRG1 (Lys181/Lys185/Lys187 to Glu), GST fusion protein]

B4: γC399tr: Control protein in the MIN-O experiment (protein)
chain: KDCQDIANKGAKQSGLYFIKPLKANQQFLVYCEIDGSGNGWTVFQKRLDGSVDFKKNWIQYKEGFGHLSPTGTTEFWLGNEKIHLISTQSAIPYALRVELEDWNGRTSTADYAMFKVGPEADKYRLTYAYFAGGDAGDAFDGFDFGDDPSDKFFTSHNGMQFSTWDNDNDKFEGNCAEQDGSGWWMNKCHAGHLNGVYYQGGTYSKASTPNGYDNGIIWATWKTRWYSMKKTTMKIIPFNRLTIGEGQQ
- Outgrowth of MIN-O in FVB mice [6]: did not affect the outgrowth of MIN-O
